Measurements reported in article PMC11341690.
Where a chain is given by its changes, count along the chain named.

T1: PglX NTD (Salmonella D23580 (S. Typhimurium), UniProt A0A6C7IK61 1-661)
T1 sequence: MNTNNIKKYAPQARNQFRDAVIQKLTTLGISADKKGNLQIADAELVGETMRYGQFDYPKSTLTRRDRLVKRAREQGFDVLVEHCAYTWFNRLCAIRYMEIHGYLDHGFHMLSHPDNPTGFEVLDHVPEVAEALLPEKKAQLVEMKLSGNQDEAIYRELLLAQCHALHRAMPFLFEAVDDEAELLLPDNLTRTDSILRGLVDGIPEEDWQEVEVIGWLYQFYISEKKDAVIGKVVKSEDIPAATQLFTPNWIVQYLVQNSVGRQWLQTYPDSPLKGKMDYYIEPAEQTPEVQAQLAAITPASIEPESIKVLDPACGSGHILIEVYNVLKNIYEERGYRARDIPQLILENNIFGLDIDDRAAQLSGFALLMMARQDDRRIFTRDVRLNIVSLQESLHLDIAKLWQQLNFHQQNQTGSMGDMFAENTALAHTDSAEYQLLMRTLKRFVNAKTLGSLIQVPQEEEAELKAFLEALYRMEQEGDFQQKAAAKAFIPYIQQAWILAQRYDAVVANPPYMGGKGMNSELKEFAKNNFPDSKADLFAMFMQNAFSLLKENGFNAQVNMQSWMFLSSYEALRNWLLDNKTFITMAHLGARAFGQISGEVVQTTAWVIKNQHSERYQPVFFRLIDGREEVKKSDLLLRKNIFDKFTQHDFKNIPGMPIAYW

T2: PglX WT (Salmonella D23580 (S. Typhimurium), UniProt A0A6C7IK61 1-1225)
T2 sequence: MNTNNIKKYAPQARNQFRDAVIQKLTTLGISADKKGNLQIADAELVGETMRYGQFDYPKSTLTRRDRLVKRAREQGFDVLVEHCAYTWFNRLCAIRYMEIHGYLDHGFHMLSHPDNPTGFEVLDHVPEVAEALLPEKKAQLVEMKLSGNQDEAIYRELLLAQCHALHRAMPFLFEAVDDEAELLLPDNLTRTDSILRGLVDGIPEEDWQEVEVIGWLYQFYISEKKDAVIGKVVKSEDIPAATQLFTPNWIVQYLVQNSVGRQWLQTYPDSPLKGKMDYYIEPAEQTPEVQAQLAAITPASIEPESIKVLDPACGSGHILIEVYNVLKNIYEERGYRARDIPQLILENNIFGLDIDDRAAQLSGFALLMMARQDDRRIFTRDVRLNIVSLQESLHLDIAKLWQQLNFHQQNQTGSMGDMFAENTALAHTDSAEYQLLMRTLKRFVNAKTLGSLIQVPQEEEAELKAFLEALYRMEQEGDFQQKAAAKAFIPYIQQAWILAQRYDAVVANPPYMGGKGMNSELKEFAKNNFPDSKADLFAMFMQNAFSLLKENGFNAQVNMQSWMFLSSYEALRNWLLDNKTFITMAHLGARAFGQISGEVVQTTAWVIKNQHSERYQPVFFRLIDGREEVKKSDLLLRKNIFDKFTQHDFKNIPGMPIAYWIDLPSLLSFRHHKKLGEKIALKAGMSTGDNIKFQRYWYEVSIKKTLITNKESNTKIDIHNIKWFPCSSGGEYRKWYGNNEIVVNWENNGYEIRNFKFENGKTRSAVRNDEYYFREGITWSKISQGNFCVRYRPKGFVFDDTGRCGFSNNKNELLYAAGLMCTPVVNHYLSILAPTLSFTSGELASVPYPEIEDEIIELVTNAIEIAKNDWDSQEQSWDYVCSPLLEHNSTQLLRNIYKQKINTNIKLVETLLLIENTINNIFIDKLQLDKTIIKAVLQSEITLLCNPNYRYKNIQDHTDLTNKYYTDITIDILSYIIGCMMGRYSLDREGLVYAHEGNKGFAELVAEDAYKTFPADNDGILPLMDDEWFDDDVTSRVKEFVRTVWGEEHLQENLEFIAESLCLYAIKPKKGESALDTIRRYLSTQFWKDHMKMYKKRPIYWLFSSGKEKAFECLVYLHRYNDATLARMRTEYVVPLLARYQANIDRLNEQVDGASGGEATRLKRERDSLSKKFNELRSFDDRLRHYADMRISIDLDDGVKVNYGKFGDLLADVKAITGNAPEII

B1: DNA 1 (TRB2180/TRB2181) (dsDNA)
DNA 1: GGTATCCGTTCGTCATAGGCTCAAAGCGTCTCCTGAGTCTCGGATCAGTACGAACTACCGGAACCAACACGACTGATCGTCTTCGGTGACCATTGCAACACTAGTATCTCGAGTGCCGTG
DNA 2: CACGGCACTCGAGATACTAGTGTTGCAATGGTCACCGAAGACGATCAGTCGTGTTGGTTCCGGTAGTTCGTACTGATCCGAGACTCAGGAGACGCTTTGAGCCTATGACGAACGGATACC
B2: DNA 2 (TRB2182/TRB2183) (dsDNA)
DNA 1: B1 DNA 1 with C73G, T74A, G75T, A76C, T77A, C78G
DNA 2: B1 DNA 2 with G43C, A44T, T45G, C46A, A47T, G48C
B3: DNA 3 (TRB2184/TRB2185) (dsDNA)
DNA 1: B1 DNA 1 with T74A, G75A, A76T, T77A
DNA 2: B1 DNA 2 with A44T, T45A, C46T, A47T
B4: DNA 4 (TRB2186/TRB2187) (dsDNA)
DNA 1: B1 DNA 1 with G43T, A44G, C46A, A47C, G48C, T74A, G75A, A76T, T77A
DNA 2: B1 DNA 2 with A44T, T45A, C46T, A47T, C73G, T74G, G75T, T77C, C78A

Tests used:
PglX-SAM:Ocr complex = molecular target: T3, PglX-SAM:Ocr complex (Salmonella enterica, UniProt A0A6C7IK61); conditions: PglX incubated with 1 mM SAM, then Ocr, before crystallisation; same methyltransferase pocket
T3 construct: gene STMMW_44401

PglX (PglX-SAM) = molecular target: T4, PglX (PglX-SAM) (Salmonella enterica, UniProt A0A6C7IK61); conditions: PglX incubated with 1 mM SAM before crystallisation; methyltransferase pocket between GSG and NPPY motifs; no DNA
T4 construct: gene STMMW_44401

[1] = molecular target: PglX (Salmonella enterica serovar Typhimurium ST313 strain D23580 BREX methyltransferase), wild type (Salmonella enterica serovar Typhimurium ST313 strain D23580); assay: mass photometry; PglX proteins with equimolar Ocr; TwoMP (Refeyn); 1 uM for 1 h on ice in 10 mM Tris pH 7.9, 25 mM NaCl, 0.5 uM SAM, 0.5 uM MgCl2, then diluted to 5 nM
PglX NTD = molecular target: T1, PglX NTD; assay: mass photometry; NTD peak may include free DNA; mass photometry (Refeyn); buffer, salt, pH and temperature not given in the material; conditions: protein: recombinant; tags: untagged (His/SUMO tag removed by hSENP2); blunt
PglX WT [2] = molecular target: T2, PglX WT; assay: mass photometry; 1:1 and 2:1 complexes; mass photometry (Refeyn); buffer, salt, pH and temperature not given in the material; conditions: protein: recombinant; tags: untagged (His/SUMO tag removed by hSENP2); blunt
PglX WT [3] = molecular target: T2, PglX WT; assay: mass photometry; 1:1, 2:1 and 3:1 complexes; mass photometry (Refeyn); buffer, salt, pH and temperature not given in the material; conditions: protein: recombinant; tags: untagged (His/SUMO tag removed by hSENP2); blunt
PglX WT [4] = molecular target: T2, PglX WT; assay: mass photometry; 1:1, 2:1 and 3:1 complexes; non-specific; mass photometry (Refeyn); buffer, salt, pH and temperature not given in the material; conditions: protein: recombinant; tags: untagged (His/SUMO tag removed by hSENP2); blunt

Molecule | binding result (PglX NTD) | binding result (PglX WT [2]) | further results
C[S+](CC[C@H](N)C(=O)O)C[C@H]1O[C@@H](n2cnc3c(N)ncnc32)[C@H](O)[C@@H]1O (stereo partly drawn) [SAM, S-adenosyl-L-methionine] | – | – | X-ray crystal structure, 3.5 A (PglX-SAM:Ocr complex): visible in the PglX-SAM:Ocr structure is a bound SAM molecule; X-ray crystal structure, 3.5 A (PglX (PglX-SAM)): crystallographic structure of Salmonella PglX bound to S-adenosyl-L-methionine (SAM), a co-factor for methylation
Ocr from phage T7 (DNA mimic, anti-restriction and anti-BREX protein) (from UniProt P03775 1-117) (natural protein) | – | – | stoichiometry N (Ocr per PglX (1:2 PglX WT:Ocr)) [1]: 2; stoichiometry N (Ocr per PglX (2:2 PglX WT:Ocr)) [1]: 1
B1 | no binding | binds | –
B2 | no binding | binds | –
B3 | no binding | – | binding result (PglX WT [3]): binds
B4 | no binding | – | binding result (PglX WT [4]): binds
